Assay results as given in patent publication US20250002945, “NEW TALE PROTEIN SCAFFOLDS WITH IMPROVED ON-TARGET/OFF-TARGET ACTIVITY RATIOS” (CELLECTIS SA, published 2025).

What was measured:
Experiment in all cases: cell_activity; T cells, mostly above 70%
Settings in all cases: tags: SV40 NLS; FokI fusion
CD38 (2) left V2 TALEN = biological target: T1, CD38 (2) left V2 TALEN (synthetic, UniProt Q56830 SEQ:15-719)
T1 chain: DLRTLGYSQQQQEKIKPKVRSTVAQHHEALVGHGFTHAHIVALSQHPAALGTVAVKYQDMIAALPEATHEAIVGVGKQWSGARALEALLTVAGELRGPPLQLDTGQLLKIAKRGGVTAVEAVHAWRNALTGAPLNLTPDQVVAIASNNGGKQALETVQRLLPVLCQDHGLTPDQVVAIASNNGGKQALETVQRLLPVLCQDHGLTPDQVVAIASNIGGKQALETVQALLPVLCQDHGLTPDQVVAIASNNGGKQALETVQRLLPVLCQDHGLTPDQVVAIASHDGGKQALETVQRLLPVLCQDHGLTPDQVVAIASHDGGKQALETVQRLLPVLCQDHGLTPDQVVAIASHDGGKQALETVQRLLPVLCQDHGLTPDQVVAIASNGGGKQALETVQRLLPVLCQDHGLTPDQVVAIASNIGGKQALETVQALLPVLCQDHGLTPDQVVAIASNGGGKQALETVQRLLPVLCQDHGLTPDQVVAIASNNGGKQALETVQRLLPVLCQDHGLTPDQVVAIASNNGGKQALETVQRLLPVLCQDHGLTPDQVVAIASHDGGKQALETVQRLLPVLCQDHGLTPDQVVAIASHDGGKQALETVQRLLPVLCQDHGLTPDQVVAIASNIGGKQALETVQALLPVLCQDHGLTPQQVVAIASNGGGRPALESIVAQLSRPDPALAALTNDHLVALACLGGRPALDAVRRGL

CD38 (1) right V2 TALEN = biological target: T2, CD38 (1) right V2 TALEN (synthetic, UniProt Q56830 SEQ:15-719)
T2 chain: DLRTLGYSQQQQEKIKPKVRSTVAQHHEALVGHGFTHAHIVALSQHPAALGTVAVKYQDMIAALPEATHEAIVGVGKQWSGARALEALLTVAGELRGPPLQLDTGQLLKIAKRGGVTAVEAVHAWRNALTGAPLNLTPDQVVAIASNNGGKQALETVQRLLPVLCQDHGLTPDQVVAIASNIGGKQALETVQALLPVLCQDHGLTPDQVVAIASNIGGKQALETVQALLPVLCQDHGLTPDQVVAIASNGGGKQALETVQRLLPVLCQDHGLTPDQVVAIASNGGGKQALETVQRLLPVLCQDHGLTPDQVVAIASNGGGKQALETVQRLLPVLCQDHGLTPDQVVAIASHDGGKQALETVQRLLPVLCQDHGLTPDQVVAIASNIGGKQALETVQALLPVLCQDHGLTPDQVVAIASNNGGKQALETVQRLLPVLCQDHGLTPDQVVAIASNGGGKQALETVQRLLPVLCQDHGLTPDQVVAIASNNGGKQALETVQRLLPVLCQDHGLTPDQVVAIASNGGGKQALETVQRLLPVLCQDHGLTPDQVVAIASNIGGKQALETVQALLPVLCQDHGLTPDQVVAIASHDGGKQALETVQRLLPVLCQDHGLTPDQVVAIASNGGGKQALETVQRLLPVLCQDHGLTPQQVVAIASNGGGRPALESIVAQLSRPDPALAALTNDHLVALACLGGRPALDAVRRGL

CISH (3) right V2 TALEN = biological target: T3, CISH (3) right V2 TALEN (synthetic, UniProt Q56830 SEQ:15-719)
T3 chain: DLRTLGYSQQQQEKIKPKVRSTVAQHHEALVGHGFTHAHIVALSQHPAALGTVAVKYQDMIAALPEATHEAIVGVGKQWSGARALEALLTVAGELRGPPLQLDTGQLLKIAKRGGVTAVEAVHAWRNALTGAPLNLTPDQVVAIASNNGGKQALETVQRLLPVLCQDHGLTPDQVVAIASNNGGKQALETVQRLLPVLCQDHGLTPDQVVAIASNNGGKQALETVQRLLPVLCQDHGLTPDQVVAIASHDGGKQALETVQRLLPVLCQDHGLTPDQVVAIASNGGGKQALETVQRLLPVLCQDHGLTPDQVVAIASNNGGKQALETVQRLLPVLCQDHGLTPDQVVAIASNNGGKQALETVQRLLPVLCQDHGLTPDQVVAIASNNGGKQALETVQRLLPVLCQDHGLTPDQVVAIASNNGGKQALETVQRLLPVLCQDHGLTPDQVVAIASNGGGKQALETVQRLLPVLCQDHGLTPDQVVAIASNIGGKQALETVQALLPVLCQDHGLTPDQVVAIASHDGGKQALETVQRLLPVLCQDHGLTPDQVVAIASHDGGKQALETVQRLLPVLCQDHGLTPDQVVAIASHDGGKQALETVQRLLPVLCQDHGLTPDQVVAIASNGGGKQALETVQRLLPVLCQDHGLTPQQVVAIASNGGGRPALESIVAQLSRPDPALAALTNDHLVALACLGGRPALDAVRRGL

CD38 (2) right V2 TALEN = biological target: T4, CD38 (2) right V2 TALEN (synthetic, UniProt Q56830 SEQ:15-719)
T4 chain: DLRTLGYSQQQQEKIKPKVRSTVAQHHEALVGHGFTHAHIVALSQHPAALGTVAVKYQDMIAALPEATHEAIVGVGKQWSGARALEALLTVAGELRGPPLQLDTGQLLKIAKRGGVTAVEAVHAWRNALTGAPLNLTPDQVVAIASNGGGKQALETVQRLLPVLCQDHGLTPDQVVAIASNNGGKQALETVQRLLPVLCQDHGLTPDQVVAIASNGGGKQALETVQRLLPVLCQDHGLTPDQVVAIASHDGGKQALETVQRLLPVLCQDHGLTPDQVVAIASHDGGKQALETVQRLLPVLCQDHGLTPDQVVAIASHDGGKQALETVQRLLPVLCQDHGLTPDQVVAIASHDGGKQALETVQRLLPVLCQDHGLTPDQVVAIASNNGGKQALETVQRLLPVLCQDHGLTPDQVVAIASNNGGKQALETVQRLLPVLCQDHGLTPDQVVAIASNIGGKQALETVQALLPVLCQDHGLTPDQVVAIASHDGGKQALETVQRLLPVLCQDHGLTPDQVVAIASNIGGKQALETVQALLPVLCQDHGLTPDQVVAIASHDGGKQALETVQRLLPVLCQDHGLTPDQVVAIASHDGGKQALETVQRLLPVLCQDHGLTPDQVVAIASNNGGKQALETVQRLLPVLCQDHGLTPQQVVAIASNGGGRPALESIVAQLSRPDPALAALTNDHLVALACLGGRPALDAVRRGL

CD38 (1) left V2 TALEN = biological target: T5, CD38 (1) left V2 TALEN (synthetic, UniProt Q56830 SEQ:15-719)
T5 chain: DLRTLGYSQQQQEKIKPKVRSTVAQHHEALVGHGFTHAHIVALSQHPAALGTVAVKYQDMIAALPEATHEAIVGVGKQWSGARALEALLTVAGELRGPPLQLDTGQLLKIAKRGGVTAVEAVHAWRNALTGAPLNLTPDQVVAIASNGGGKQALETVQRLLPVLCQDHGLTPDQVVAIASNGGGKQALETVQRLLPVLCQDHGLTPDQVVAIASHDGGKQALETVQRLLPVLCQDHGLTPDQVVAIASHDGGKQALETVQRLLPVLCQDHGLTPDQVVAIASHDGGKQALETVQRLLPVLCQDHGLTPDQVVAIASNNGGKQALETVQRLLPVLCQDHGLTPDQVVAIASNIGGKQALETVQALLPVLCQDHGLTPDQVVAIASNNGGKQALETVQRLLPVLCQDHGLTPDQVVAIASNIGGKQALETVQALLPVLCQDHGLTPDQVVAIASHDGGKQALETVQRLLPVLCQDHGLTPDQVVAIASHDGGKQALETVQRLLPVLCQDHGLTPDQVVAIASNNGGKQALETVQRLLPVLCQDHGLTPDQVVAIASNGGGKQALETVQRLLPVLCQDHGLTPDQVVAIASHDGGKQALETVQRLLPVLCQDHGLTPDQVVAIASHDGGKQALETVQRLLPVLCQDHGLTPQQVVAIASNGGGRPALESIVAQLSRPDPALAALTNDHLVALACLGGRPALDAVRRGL

IgH (1) right V2 TALEN = biological target: T6, IgH (1) right V2 TALEN (synthetic, UniProt Q56830 SEQ:15-719)
T6 chain: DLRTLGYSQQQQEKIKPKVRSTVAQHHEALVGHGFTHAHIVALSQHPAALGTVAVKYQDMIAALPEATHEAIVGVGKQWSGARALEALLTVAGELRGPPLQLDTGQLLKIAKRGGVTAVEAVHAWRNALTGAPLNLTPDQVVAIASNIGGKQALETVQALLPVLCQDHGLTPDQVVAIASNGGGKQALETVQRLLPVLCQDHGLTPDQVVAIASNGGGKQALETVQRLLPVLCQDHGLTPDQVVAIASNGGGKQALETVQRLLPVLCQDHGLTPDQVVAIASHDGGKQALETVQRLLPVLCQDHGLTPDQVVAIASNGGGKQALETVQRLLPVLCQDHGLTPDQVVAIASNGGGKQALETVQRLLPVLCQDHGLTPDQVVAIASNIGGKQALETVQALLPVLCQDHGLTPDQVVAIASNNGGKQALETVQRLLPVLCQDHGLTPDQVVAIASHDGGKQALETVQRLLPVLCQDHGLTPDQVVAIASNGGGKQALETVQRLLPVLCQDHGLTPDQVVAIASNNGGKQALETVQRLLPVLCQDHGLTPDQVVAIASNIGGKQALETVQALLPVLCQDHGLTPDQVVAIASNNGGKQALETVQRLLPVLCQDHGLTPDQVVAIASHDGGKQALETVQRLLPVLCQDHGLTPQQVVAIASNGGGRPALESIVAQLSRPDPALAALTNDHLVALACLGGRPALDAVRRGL

IgH (1) left V2 TALEN = biological target: T7, IgH (1) left V2 TALEN (synthetic, UniProt Q56830 SEQ:15-719)
T7 chain: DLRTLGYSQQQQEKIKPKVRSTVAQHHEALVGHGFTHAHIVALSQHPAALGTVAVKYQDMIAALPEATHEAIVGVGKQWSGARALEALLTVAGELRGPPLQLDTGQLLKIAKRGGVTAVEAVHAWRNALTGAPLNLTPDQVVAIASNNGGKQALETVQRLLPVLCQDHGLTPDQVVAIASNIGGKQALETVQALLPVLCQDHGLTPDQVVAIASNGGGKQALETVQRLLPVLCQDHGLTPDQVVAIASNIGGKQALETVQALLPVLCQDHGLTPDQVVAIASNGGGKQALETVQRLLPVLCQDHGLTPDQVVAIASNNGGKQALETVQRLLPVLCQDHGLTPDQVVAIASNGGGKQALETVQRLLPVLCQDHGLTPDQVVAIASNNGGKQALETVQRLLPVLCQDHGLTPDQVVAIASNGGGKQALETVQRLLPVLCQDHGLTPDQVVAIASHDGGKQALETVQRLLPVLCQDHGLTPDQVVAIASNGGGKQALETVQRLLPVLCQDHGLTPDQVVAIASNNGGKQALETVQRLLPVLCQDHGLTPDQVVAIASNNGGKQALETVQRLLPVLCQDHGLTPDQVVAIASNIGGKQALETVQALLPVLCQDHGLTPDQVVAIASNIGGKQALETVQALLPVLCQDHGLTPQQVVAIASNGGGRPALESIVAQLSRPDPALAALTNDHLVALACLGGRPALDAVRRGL

B1: CD38 (2) left half-site (dsDNA)
DNA 1: TGGAGCCCTATGGCCAA
DNA 2: TTGGCCATAGGGCTCCA
B1 was tested, and the activity (CD38 (2) left V2 TALEN) was over 50 % indels.

B2: CD38 (1) right half-site (dsDNA)
DNA 1: AAGTACACTGAAATTCA
DNA 2: TGAATTTCAGTGTACTT
B2 showed an activity (CD38 (1) right V2 TALEN) of over 50 % indels.

B3: CISH (3) right half-site (dsDNA)
DNA 1: GAGGGTACCCCAGCCCA
DNA 2: TGGGCTGGGGTACCCTC
Binder B3 has an activity (CISH (3) right V2 TALEN) of over 50 % indels.

B4: CD38 (2) right half-site (dsDNA)
DNA 1: CCGGTGTCCGGGGACAA
DNA 2: TTGTCCCCGGACACCGG
In the case of B4, the activity (CD38 (2) right V2 TALEN) is reported as over 50 % indels.

B5: CD38 (1) left half-site (dsDNA)
DNA 1: TTTCCCGAGACCGTCCT
DNA 2: AGGACGGTCTCGGGAAA
Work on B5 yielded an activity (CD38 (1) left V2 TALEN) of over 50 % indels.

B6: IgH (1) right half-site (dsDNA)
DNA 1: AGCTCAGCTAAGAAATA
DNA 2: TATTTCTTAGCTGAGCT
With B6 the activity (IgH (1) right V2 TALEN) was over 50 % indels.

B7: IgH (1) left half-site (dsDNA)
DNA 1: TGATATGTGTCTGGAAT
DNA 2: ATTCCAGACACATATCA
B7 showed an activity (IgH (1) left V2 TALEN) of over 50 % indels.
